{"source": "paper doi:10.1101/2025.03.09.642192", "about": "(2025)", "binders": {"B1": {"name": "platelet factor 4 (PF4) (natural protein)", "chain": "EAEEDGDLQCLCVKTTSQVRPRHITSLEVIKAGPHCPTAQLIATLKNGRKICLDLQAPLYKKIIKKLLES"}}, "key": {"[1]": {"target": "T1, HAdV-C5 hexon protein (HAdV-C5, UniProt P04133 1-952)", "T1 chain": "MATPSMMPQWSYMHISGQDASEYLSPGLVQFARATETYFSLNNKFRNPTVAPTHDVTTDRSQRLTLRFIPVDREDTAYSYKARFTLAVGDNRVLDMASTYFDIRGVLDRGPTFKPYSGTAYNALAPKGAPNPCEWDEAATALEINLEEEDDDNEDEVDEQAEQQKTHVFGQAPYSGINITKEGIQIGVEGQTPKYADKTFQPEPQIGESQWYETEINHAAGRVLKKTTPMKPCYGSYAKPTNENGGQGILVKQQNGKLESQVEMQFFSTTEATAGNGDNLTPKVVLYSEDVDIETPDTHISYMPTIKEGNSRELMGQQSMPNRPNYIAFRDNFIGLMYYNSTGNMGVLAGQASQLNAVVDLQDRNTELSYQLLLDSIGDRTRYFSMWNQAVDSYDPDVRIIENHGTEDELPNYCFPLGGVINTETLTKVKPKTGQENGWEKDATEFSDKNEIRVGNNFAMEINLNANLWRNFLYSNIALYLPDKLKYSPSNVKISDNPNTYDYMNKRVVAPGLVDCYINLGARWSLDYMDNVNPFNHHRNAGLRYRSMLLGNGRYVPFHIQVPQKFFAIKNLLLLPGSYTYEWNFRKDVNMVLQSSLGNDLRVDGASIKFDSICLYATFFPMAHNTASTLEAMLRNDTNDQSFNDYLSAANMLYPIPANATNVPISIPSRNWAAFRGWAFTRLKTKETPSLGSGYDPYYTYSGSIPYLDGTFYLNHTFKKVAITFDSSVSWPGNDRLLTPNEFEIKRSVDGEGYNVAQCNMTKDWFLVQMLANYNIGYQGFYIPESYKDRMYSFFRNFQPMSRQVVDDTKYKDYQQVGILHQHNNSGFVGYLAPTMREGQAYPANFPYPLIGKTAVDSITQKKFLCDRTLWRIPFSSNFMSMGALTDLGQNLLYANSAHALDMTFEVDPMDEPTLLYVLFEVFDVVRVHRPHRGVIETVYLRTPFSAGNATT", "test": "SPR"}, "[2]": {"target": "T2, purified hexon protein from ChAdOx1 (chimpanzee adenovirus Y25 (ChAdOx1))", "T2 chain": "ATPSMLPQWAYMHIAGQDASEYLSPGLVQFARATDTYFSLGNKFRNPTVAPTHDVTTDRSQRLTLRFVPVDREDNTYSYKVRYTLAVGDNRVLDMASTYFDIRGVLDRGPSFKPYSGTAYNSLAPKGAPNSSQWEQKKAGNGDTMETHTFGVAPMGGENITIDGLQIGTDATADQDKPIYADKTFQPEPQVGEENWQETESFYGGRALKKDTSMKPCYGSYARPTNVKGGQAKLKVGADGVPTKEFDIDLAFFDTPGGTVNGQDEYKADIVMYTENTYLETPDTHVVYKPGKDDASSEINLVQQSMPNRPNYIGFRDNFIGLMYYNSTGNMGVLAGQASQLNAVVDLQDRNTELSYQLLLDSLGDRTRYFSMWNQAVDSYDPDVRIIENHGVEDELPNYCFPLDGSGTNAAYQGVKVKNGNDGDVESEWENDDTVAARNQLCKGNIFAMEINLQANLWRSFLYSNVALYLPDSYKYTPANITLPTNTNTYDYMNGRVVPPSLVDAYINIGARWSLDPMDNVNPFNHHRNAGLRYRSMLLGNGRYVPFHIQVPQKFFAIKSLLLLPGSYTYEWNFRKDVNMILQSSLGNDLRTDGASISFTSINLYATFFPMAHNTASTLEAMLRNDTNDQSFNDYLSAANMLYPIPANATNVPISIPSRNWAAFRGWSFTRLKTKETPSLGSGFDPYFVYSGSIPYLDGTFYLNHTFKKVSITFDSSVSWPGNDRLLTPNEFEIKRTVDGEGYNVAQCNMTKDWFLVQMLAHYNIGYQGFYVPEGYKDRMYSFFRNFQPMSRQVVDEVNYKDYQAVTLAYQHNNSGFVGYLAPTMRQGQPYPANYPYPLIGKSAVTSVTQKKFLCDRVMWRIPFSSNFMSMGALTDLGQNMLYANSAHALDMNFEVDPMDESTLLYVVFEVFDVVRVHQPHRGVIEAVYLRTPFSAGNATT", "test": "SPR"}}, "data": [{"binder": "B1", "values": [{"measurement": "koff", "setting": "[1]", "result": 0.0213, "unit": "s⁻¹"}, {"measurement": "koff", "setting": "[2]", "result": 0.0106, "unit": "s⁻¹"}]}]}
